Data reported in paper PMC10511788 (2023).

Target: M1-linked di-ubiquitin (UniProt P0CG48 1-76; P0CG48 1-76)
Assay: ITC

- Kd: 15.9 µM
B1: mouse HOIL-1L NZF domain (residues Pro192-Gln250) T207E (domain or fragment)
chain: GPLGSPEPVGWQCPGCTFINKPERPGCEMCCRARPETYQIPASYQPDEEERARLAGEEEALRQYQQ
